The values that follow come from patent US20220259294A1.

Assay [1] deals with IHF peptide of H. influenzae (Haemophilus influenzae). Nature of the assay: Kd at pH 7.5 (Octet biosensor per Example 1).
Assay [2] has the same target. Nature of the assay: Kd at pH 6.5 (Octet biosensor per Example 1).
Assay [3] shares this target. In words: Kd at pH 4.5 (Octet biosensor per Example 1).
The target is the same in assay [4]. In words: Kd at pH 5.5 (Octet biosensor per Example 1).

B1: TRL295 (antibody, V domains shown)
VH: QVQLVESGGGLVQPGGSLRLSCAASGFPFSSYAMSWVRQAPGKGLEWVSAISGNGADSYYADSVKGRFTTSRDKSKNTVYLQMNRLRAEDTAVYYCAKDMRRYHYDSSGLHFWGQGTLVTVSS
VL: DIELTQAPSVSVYPGQTARITCSGDALPKQYAYWYQQKPGQAPVVVIYKDSERPSGISERFSGSSSGTTVTLTISGVQAGDEADYYCQSVDTSVSYYVVFGGGTKLTVL
For the molecule B1, the Kd in assay [1] was 4.2 nM; in assay [2], 2.8 nM; in assay [3] it was 3.7 nM; in assay [4], 2.8 nM.
